Laboratory results taken from PMC2756588.

T1: Bud14, P27637
T1 sequence (P27637 247-328, looked up): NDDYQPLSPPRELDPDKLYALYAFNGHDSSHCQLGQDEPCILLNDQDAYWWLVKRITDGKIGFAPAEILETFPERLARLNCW

T2: Boi1, P38041
T2 sequence (P38041 1-86, looked up): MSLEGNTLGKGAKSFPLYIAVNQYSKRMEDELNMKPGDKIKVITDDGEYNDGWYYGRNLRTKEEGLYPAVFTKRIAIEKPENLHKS

T3: Fus1, P11710
T3 sequence (P11710 432-512, looked up): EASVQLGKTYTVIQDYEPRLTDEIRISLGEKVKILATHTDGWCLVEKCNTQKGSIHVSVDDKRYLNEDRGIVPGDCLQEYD

T4: Sla1-2, P32790
T4 sequence (P32790 60-140, looked up): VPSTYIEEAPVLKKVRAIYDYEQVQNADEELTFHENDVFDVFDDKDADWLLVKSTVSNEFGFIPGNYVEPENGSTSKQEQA

T5: Cyk3, Q07533
T5 sequence (Q07533 1-83, looked up): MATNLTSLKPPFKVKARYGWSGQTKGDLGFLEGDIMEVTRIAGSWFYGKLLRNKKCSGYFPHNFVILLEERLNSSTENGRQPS

T6: Hse1, P38753
T6 sequence (P38753 208-285, looked up): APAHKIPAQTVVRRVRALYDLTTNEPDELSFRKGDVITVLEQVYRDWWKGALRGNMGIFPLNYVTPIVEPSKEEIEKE

T7: Bzz1-1, P38822
T7 sequence (P38822 478-572, looked up): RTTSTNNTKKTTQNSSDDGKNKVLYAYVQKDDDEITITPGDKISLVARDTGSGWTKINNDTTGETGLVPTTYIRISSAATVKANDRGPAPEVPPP

T8: Sla1-3, P32790
T8 sequence (P32790 344-424, looked up): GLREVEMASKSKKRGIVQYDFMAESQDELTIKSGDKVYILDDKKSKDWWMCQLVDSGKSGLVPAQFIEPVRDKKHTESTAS

T9: Nbp2, Q12163
T9 sequence (Q12163 103-180, looked up): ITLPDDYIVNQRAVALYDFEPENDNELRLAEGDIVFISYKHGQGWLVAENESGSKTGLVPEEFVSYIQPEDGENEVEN

T10: Cdc25, P04821
T10 sequence (P04821 50-136, looked up): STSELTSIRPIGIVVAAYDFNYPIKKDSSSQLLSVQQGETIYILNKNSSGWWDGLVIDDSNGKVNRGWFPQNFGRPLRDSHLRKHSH

T11: Lsb3, P43603
T11 sequence (P43603 385-451, looked up): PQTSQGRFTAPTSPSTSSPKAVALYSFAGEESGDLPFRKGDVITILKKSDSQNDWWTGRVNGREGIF

T12: Pex13, P80667
T12 sequence (P80667 295-386, looked up): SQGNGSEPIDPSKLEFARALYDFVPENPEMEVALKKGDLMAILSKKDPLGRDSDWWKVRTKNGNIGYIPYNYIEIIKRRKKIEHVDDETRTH

T13: Hof1, Q05080
T13 sequence (Q05080 590-669, looked up): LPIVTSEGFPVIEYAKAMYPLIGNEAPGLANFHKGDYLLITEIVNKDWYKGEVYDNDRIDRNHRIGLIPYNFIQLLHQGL

T14: Abp1, P15891
T14 sequence (P15891 535-592, looked up): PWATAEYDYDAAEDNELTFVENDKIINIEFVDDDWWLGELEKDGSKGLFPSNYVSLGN

T15: Lsb4, P32793
T15 sequence (P32793 402-468, looked up): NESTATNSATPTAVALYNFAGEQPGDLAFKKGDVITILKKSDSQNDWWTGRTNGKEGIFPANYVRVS

T16: Boi2, P39969
T16 sequence (P39969 32-116, looked up): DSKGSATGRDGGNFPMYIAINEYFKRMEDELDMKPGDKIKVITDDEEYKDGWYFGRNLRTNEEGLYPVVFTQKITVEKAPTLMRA

T17: Lsb1, P53281
T17 sequence (P53281 45-122, looked up): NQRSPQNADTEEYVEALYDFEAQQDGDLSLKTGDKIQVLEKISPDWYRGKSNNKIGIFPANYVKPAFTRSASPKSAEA

T18: Myo5, Q04439
T18 sequence (Q04439 1072-1160, looked up): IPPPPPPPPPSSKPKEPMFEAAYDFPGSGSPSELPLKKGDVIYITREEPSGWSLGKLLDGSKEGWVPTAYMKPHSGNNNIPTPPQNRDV

T19: Bzz1-2, P38822
T19 sequence (P38822 568-633, looked up): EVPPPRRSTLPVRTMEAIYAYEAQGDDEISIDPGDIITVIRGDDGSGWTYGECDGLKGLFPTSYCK

T20: Bbc1, P47068
T20 sequence (P47068 1-78, looked up): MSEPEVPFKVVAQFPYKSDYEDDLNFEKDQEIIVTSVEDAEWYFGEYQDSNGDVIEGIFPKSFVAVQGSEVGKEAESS

T21: Pin3, Q06449
T21 sequence (Q06449 53-122, looked up): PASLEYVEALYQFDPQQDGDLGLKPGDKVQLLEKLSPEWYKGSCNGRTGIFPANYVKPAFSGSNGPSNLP


Biological target: T1, Bud14, P27637
Test: SPOT array
Conditions: median of control spots 956

Row | Binder | SPOT intensity
1 | YLTRPLPSTPNEDSR | 1
2 | NTMKKRPAPPSLPSL | 21
3 | RKRAPTPPAPSRSEK | 6

Biological target: T2, Boi1, P38041
Test: SPOT array
Conditions: median of control spots 1162

Row | Binder | SPOT intensity
4 | YLTRPLPSTPNEDSR | 0
5 | NTMKKRPAPPSLPSL | 7
6 | RKRAPTPPAPSRSEK | 1

Biological target: GST
Test: SPOT array
Conditions: median of control spots 978

Row | Binder | SPOT intensity
7 | YLTRPLPSTPNEDSR | 0
8 | NTMKKRPAPPSLPSL | 0
9 | RKRAPTPPAPSRSEK | 1

Biological target: Myo3, P36006
Test: SPOT array
Conditions: median of control spots 468

Row | Binder | SPOT intensity
10 | YLTRPLPSTPNEDSR | 0
11 | NTMKKRPAPPSLPSL | 99
12 | RKRAPTPPAPSRSEK | 20

Biological target: T3, Fus1, P11710
Test: SPOT array
Conditions: median of control spots 1200

Row | Binder | SPOT intensity
13 | YLTRPLPSTPNEDSR | 0
14 | NTMKKRPAPPSLPSL | 0
15 | RKRAPTPPAPSRSEK | 14

Biological target: Rvs167, P39743
Test: SPOT array
Conditions: median of control spots 2707

Chain of Rvs167, P39743 (P39743 419-482): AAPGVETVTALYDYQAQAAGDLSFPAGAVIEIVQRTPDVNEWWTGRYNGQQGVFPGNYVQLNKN

Row | Binder | SPOT intensity
16 | YLTRPLPSTPNEDSR | 15
17 | NTMKKRPAPPSLPSL | 9
18 | RKRAPTPPAPSRSEK | 9

Biological target: Bem1-2, P29366
Test: SPOT array
Conditions: median of control spots 4347

Chain of Bem1-2, P29366 (P29366 139-227): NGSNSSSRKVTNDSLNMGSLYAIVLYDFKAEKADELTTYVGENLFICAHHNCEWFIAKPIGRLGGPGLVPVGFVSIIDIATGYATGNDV

Row | Binder | SPOT intensity
19 | YLTRPLPSTPNEDSR | 12
20 | NTMKKRPAPPSLPSL | 56
21 | RKRAPTPPAPSRSEK | 0

Biological target: T4, Sla1-2, P32790
Test: SPOT array
Conditions: median of control spots 712

Row | Binder | SPOT intensity
22 | YLTRPLPSTPNEDSR | 0
23 | NTMKKRPAPPSLPSL | 1
24 | RKRAPTPPAPSRSEK | 0

Biological target: T5, Cyk3, Q07533
Test: SPOT array
Conditions: median of control spots 1451

Row | Binder | SPOT intensity
25 | YLTRPLPSTPNEDSR | 0
26 | NTMKKRPAPPSLPSL | 1
27 | RKRAPTPPAPSRSEK | 1

Biological target: T6, Hse1, P38753
Test: SPOT array
Conditions: median of control spots 1727

Row | Binder | SPOT intensity
28 | YLTRPLPSTPNEDSR | 6
29 | NTMKKRPAPPSLPSL | 53
30 | RKRAPTPPAPSRSEK | 3

Biological target: T7, Bzz1-1, P38822
Test: SPOT array
Conditions: median of control spots 4446

Row | Binder | SPOT intensity
31 | YLTRPLPSTPNEDSR | 0
32 | NTMKKRPAPPSLPSL | 60
33 | RKRAPTPPAPSRSEK | 27

Biological target: Bem1-1, P29366
Test: SPOT array
Conditions: median of control spots 4282

Chain of Bem1-1, P29366 (P29366 55-141): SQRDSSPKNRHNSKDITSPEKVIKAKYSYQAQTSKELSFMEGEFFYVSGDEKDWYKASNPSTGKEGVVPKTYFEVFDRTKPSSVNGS

Row | Binder | SPOT intensity
34 | YLTRPLPSTPNEDSR | 0
35 | NTMKKRPAPPSLPSL | 0
36 | RKRAPTPPAPSRSEK | 1

Biological target: T8, Sla1-3, P32790
Test: SPOT array
Conditions: median of control spots 5475

Row | Binder | SPOT intensity
37 | YLTRPLPSTPNEDSR | 1
38 | NTMKKRPAPPSLPSL | 11
39 | RKRAPTPPAPSRSEK | 24

Biological target: T9, Nbp2, Q12163
Test: SPOT array
Conditions: median of control spots 357

Row | Binder | SPOT intensity
40 | YLTRPLPSTPNEDSR | 0
41 | NTMKKRPAPPSLPSL | 120
42 | RKRAPTPPAPSRSEK | 283

Biological target: T10, Cdc25, P04821
Test: SPOT array
Conditions: median of control spots 969

Row | Binder | SPOT intensity
43 | YLTRPLPSTPNEDSR | 0
44 | NTMKKRPAPPSLPSL | 58
45 | RKRAPTPPAPSRSEK | 15

Biological target: T11, Lsb3, P43603
Test: SPOT array
Conditions: median of control spots 406

Row | Binder | SPOT intensity
46 | YLTRPLPSTPNEDSR | 139
47 | NTMKKRPAPPSLPSL | 12
48 | RKRAPTPPAPSRSEK | 8

Biological target: T12, Pex13, P80667
Test: SPOT array
Conditions: median of control spots 1341

Row | Binder | SPOT intensity
49 | YLTRPLPSTPNEDSR | 297
50 | NTMKKRPAPPSLPSL | 80
51 | RKRAPTPPAPSRSEK | 6

Biological target: T13, Hof1, Q05080
Test: SPOT array
Conditions: median of control spots 4086

Row | Binder | SPOT intensity
52 | YLTRPLPSTPNEDSR | 0
53 | NTMKKRPAPPSLPSL | 489
54 | RKRAPTPPAPSRSEK | 0

Biological target: Sho1, P40073
Test: SPOT array
Conditions: median of control spots 1148

Chain of Sho1, P40073 (P40073 287-367): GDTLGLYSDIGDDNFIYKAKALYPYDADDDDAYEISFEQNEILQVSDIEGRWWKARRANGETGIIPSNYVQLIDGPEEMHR

Row | Binder | SPOT intensity
55 | YLTRPLPSTPNEDSR | 1320
56 | NTMKKRPAPPSLPSL | 95
57 | RKRAPTPPAPSRSEK | 99

Biological target: T14, Abp1, P15891
Test: SPOT array
Conditions: median of control spots 935

Row | Binder | SPOT intensity
58 | YLTRPLPSTPNEDSR | 0
59 | NTMKKRPAPPSLPSL | 205
60 | RKRAPTPPAPSRSEK | 274

Biological target: T15, Lsb4, P32793
Test: SPOT array
Conditions: median of control spots 397

Row | Binder | SPOT intensity
61 | YLTRPLPSTPNEDSR | 598
62 | NTMKKRPAPPSLPSL | 63
63 | RKRAPTPPAPSRSEK | 29

Biological target: T16, Boi2, P39969
Test: SPOT array
Conditions: median of control spots 1161

Row | Binder | SPOT intensity
64 | YLTRPLPSTPNEDSR | 1
65 | NTMKKRPAPPSLPSL | 2
66 | RKRAPTPPAPSRSEK | 0

Biological target: T17, Lsb1, P53281
Test: SPOT array
Conditions: median of control spots 388

Row | Binder | SPOT intensity
67 | YLTRPLPSTPNEDSR | 8
68 | NTMKKRPAPPSLPSL | 52
69 | RKRAPTPPAPSRSEK | 1290

Biological target: T18, Myo5, Q04439
Test: SPOT array
Conditions: median of control spots 471

Row | Binder | SPOT intensity
70 | YLTRPLPSTPNEDSR | 0
71 | NTMKKRPAPPSLPSL | 115
72 | RKRAPTPPAPSRSEK | 0

Biological target: T19, Bzz1-2, P38822
Test: SPOT array
Conditions: median of control spots 4538

Row | Binder | SPOT intensity
73 | YLTRPLPSTPNEDSR | 0
74 | NTMKKRPAPPSLPSL | 1440
75 | RKRAPTPPAPSRSEK | 946

Biological target: T20, Bbc1, P47068
Test: SPOT array
Conditions: median of control spots 796

Row | Binder | SPOT intensity
76 | YLTRPLPSTPNEDSR | 0
77 | NTMKKRPAPPSLPSL | 15
78 | RKRAPTPPAPSRSEK | 105

Biological target: T21, Pin3, Q06449
Test: SPOT array
Conditions: median of control spots 2171

Row | Binder | SPOT intensity
79 | YLTRPLPSTPNEDSR | 0
80 | NTMKKRPAPPSLPSL | 57
81 | RKRAPTPPAPSRSEK | 7
